The chains are these.
B1: M1-L-A1-3-1C3 (hz1E11-3), periplasmic extract (antibody, V domains shown)
VH: EVQLVESGGGLVQPGGSLRLSCAASGFTFSSYTMSWVRQAPGKGLEWVAYISNGGGSTYYPDTVKGRFTISRDNAKNSLYLQMNSLRAEDTAVYYCARHLGGTASFDYWGQGTLVTVSS
VL: DIQMTQSPSSLSASVGDRVTITCLASQTIGTWLAWYQQKPGKAPKLLIYVATSLADGVPSRFSGSGSGTDFTLTISSLQPEDFATYYCDQMYSTPWTFGQGTKVEIK
notes: Clone as expressed in bacteria, periplasmic extract; LCDR3 DQMYSTPWT
B2: M1-LH-A3-3-1A6 (antibody, V domains shown)
VH: EVQLVESGGGLVQPGGSLRLSCAASGFTFSSYTMSWVRQAPGKGLEWVAYISNGGGSTYYPDTVKGRFTISRDNAKNSLYLQMNSLRAEDTAVYYCARNYGGTASFDYWGQGTLVTVSS
VL: DIQMTQSPSSLSASVGDRVTITCLASQTIGTWLAWYQQKPGKAPKLLIYVATSLADGVPSRFSGSGSGTDFTLTISSLQPEDFATYYCQQLVRTPWTFGQGTKVEIK
B3: M3-LH-A1-1-1H1 (antibody, V domains shown)
VH: EVQLVESGGGLVQPGGSLRLSCAASGFTFSSYTMSWVRQAPGKGLEWVAYISNGGGSTYYPDTVKGRFTISRDNAKNSLYLQMNSLRAEDTAVYYCARNYGGTASFDYWGQGTLVTVSS
VL: DIQMTQSPSSLSASVGDRVTITCLASQTIGTWLAWYQQKPGKAPKLLIYVATSLADGVPSRFSGSGSGTDFTLTISSLQPEDFATYYCQQNFIAPWTFGQGTKVEIK
B4: M3-LH-A1-2-2F4 (antibody, V domains shown)
VH: EVQLVESGGGLVQPGGSLRLSCAASGFTFSSYTMSWVRQAPGKGLEWVAYISNGGGSTYYPDTVKGRFTISRDNAKNSLYLQMNSLRAEDTAVYYCARNLGGTASFDYWGQGTLVTVSS
VL: DIQMTQSPSSLSASVGDRVTITCLASQTIGTWLAWYQQKPGKAPKLLIYVATSLADGVPSRFSGSGSGTDFTLTISSLQPEDFATYYCQQLVRIPWTFGQGTKVEIK
B5: M3-LH-A3-3-2A5 (antibody, V domains shown)
VH: EVQLVESGGGLVQPGGSLRLSCAASGFTFSSYTMSWVRQAPGKGLEWVAYISNGGGSTYYPDTVKGRFTISRDNAKNSLYLQMNSLRAEDTAVYYCARHWGGTASFDYWGQGTLVTVSS
VL: DIQMTQSPSSLSASVGDRVTITCLASQTIGTWLAWYQQKPGKAPKLLIYVATSLADGVPSRFSGSGSGTDFTLTISSLQPEDFATYYCQQMFSTPWTFGQGTKVEIK
B6: M3-LH-A3-3-2F1 (antibody, V domains shown)
VH: EVQLVESGGGLVQPGGSLRLSCAASGFTFSSYTMSWVRQAPGKGLEWVAYISNGGGSTYYPDTVKGRFTISRDNAKNSLYLQMNSLRAEDTAVYYCARHLGGTASFDYWGQGTLVTVSS
VL: DIQMTQSPSSLSASVGDRVTITCLASQTIGTWLAWYQQKPGKAPKLLIYVATSLADGVPSRFSGSGSGTDFTLTISSLQPEDFATYYCQQNAYNPWTFGQGTKVEIK
notes: substitutions derived from the printed CDR3
B7: M3-L-A1-3-1F11 (hz1E11-154), periplasmic extract (antibody, V domains shown)
VH: EVQLVESGGGLVQPGGSLRLSCAASGFTFSSYTMSWVRQAPGKGLEWVAYISNGGGSTYYPDTVKGRFTISRDNAKNSLYLQMNSLRAEDTAVYYCARHLGGTASFDYWGQGTLVTVSS
VL: DIQMTQSPSSLSASVGDRVTITCLASQTIGTWLAWYQQKPGKAPKLLIYVATSLADGVPSRFSGSGSGTDFTLTISSLQPEDFATYYCQQTAFSPWTFGQGTKVEIK
notes: Clone as expressed in bacteria, periplasmic extract; LCDR3 QQTAFSPWT
B8: M3-L-A1-3-2C2 (antibody, V domains shown)
VH: EVQLVESGGGLVQPGGSLRLSCAASGFTFSSYTMSWVRQAPGKGLEWVAYISNGGGSTYYPDTVKGRFTISRDNAKNSLYLQMNSLRAEDTAVYYCARHLGGTASFDYWGQGTLVTVSS
VL: DIQMTQSPSSLSASVGDRVTITCLASQTIGTWLAWYQQKPGKAPKLLIYVATSLADGVPSRFSGSGSGTDFTLTISSLQPEDFATYYCQQLGFIPWTFGQGTKVEIK
notes: hz1E11 variant, periplasmic extract; substitutions derived from the printed CDR3 against hz1E11
B9: M3-L-A1-3-1A12 (hz1E11-133), periplasmic extract (antibody, V domains shown)
VH: EVQLVESGGGLVQPGGSLRLSCAASGFTFSSYTMSWVRQAPGKGLEWVAYISNGGGSTYYPDTVKGRFTISRDNAKNSLYLQMNSLRAEDTAVYYCARHLGGTASFDYWGQGTLVTVSS
VL: DIQMTQSPSSLSASVGDRVTITCLASQTIGTWLAWYQQKPGKAPKLLIYVATSLADGVPSRFSGSGSGTDFTLTISSLQPEDFATYYCQQNAYAPWTFGQGTKVEIK
notes: Clone as expressed in bacteria (IPTG), periplasmic extract; LCDR3 QQNAYAPWT
B10: M3-L-A3-4-2E8 (antibody, V domains shown)
VH: EVQLVESGGGLVQPGGSLRLSCAASGFTFSSYTMSWVRQAPGKGLEWVAYISNGGGSTYYPDTVKGRFTISRDNAKNSLYLQMNSLRAEDTAVYYCARHLGGTASFDYWGQGTLVTVSS
VL: DIQMTQSPSSLSASVGDRVTITCLASQTIGTWLAWYQQKPGKAPKLLIYVATSLADGVPSRFSGSGSGTDFTLTISSLQPEDFATYYCQQIAYVPWTFGQGTKVEIK
notes: as for B8
B11: hz1E11-154 (IgG) (antibody, V domains shown)
VH: EVQLVESGGGLVQPGGSLRLSCAASGFTFSSYTMSWVRQAPGKGLEWVAYISNGGGSTYYPDTVKGRFTISRDNAKNSLYLQMNSLRAEDTAVYYCARHLGGTASFDYWGQGTLVTVSS
VL: DIQMTQSPSSLSASVGDRVTITCLASQTIGTWLAWYQQKPGKAPKLLIYVATSLADGVPSRFSGSGSGTDFTLTISSLQPEDFATYYCQQTAFSPWTFGQGTKVEIK
notes: heavy variable region same as hz1E11
B12: hz1E11-133 (IgG) (antibody, V domains shown)
VH: EVQLVESGGGLVQPGGSLRLSCAASGFTFSSYTMSWVRQAPGKGLEWVAYISNGGGSTYYPDTVKGRFTISRDNAKNSLYLQMNSLRAEDTAVYYCARHLGGTASFDYWGQGTLVTVSS
VL: DIQMTQSPSSLSASVGDRVTITCLASQTIGTWLAWYQQKPGKAPKLLIYVATSLADGVPSRFSGSGSGTDFTLTISSLQPEDFATYYCQQNAYAPWTFGQGTKVEIK
notes: as for B11

For one assay, the target named is T1, HER2-ECD-His 단백질 (human, UniProt P04626 23-652).
T1 construct: extracellular domain; Origin and limits of the construct are not described; not shown: His tag
Nature of the assay: SPR (Biacore 3000); HER2-ECD-His amine-coupled on CM5; periplasmic extract as analyte. (In general: In SPR one partner is held on a chip, and binding of the other changes the refractive index at the surface.)
Turning to B1, the “koff 감소 정도 (Fold) vs hz1E11” value was 7.4 fold.

For B2, the “koff 감소 정도 (Fold) vs hz1E11” value is 5.8 fold.

On to B3, for which the “koff 감소 정도 (Fold) vs hz1E11” value was 0.7 fold.

With B4, the “koff 감소 정도 (Fold) vs hz1E11” value was determined as 3.2 fold.

In the case of B5, the “koff 감소 정도 (Fold) vs hz1E11” value amounted to 3.6 fold.

For the molecule B6, the “koff 감소 정도 (Fold) vs hz1E11” value came out at 4.4 fold.

Consider B7, for which the “koff 감소 정도 (Fold) vs hz1E11” value is 9.7 fold.

Turning to B8, the “koff 감소 정도 (Fold) vs hz1E11” value was determined as 2 fold.

Turning to B9, the “koff 감소 정도 (Fold) vs hz1E11” value was determined as 30.4 fold.

Consider B10, for which the “koff 감소 정도 (Fold) vs hz1E11” value came out at 5.9 fold.

Another assay addresses T1, HER2-ECD-His 단백질. Nature of the assay: SPR; IgG captured on goat anti-human IgG; HER2-ECD-His as analyte.
As to B11, the “fold decrease of koff (kd) vs hz1E11” value is 8.4 fold and the “fold improvement of affinity (KD) vs hz1E11” value stood at 20 fold.

Regarding B12, the “fold decrease of koff (kd) vs hz1E11” value is 8.4 fold and the “fold improvement of affinity (KD) vs hz1E11” value came to 15 fold.

The record behind these values is KR20160022857A (dated 2016).
